Assay results: paper PMC2710519

Test system: RSC complex (17 subunits, 1.197 MDa);histone octamer (recombinant) (yeast;Xenopus laevis)
Test: AFM
Details: RSC:mononucleosome 1:3, AFM: 1 nM RSC with 21 nM 1 kbp DNA without ATP, or RSC:mononucleosome 1:3 for 30 min with or without 4 mM ATP or ATPgS, buffer, salt, pH and temperature not in …

Question: “601 mononucleosome with 236 and 252 bp arms (240/240, 635 bp)” was tested. Which binding signal (% of substrate RSC-bound) (4 mM ATP, 50% of RSC complexes nucleosome-bound) did it give?
Answer: Its binding signal (% of substrate RSC-bound) is 32.

Question: And the binding signal (% of substrate RSC-bound) (4 mM ATPgS, 76% of RSC complexes on bare DNA arms)?
Answer: The binding signal (% of substrate RSC-bound) was 52.

Question: What about the binding signal (% of substrate RSC-bound) (no ATP, 72% of RSC complexes on bare DNA arms) of the same substance?
Answer: Its binding signal (% of substrate RSC-bound) is 25.
